Tested on: HIV-1 LTR promoter transactivation by HIV-1 Tat
Test: Transactivation assay, HIV-1 LTR luciferase reporter with HIV-1 Tat
Assay type: cell-based
Details: HEK293 cells co-transfected with pHIV1LTR-Luc, HIV-1 Tat and the human ORF; relative luciferase activity 24 h post-transfection; positive if >=2 or <=0.5 and p<0.05
Excerpt: The plasmids pHIV1LTR-Luc or pHTLV1LTR-Luc containing a luciferase reporter gene under the control of the HIV-1 or HTLV-1 LTR promoters and plasmids expressing either HIV-1 Tat or HTLV-1 Tax and each human ORF found to interact with viral proteins were transfected into 10^4 HEK293 cells using the calcium phosphate method. Twenty-four hours post-transfection, cells were washed three times with PBS, lysed and luciferase activities determined from two independent transfection experiments in triplicate. We computed a paired t-test to assess the difference of the means between samples with and without the human interactor. For a trial to be considered positive, the relative luciferase activities has to be >=2 or <=0.5, and the p-value of the t-test<0.05.
Many HIV/HTLV-human interactions in our data set (130/212) involved the retroviral transactivator proteins HTLV-1 Tax (57/212), HTLV-2 Tax2 (49/212), HIV-1 Tat (10/212) and HIV-2 Tat (14/212). Human proteins interacting with viral transactivators likely influence Tat or Tax transactivation. Expression vectors encoding human ORFs and HIV-1 Tat or HTLV-1 Tax proteins were tested in a transactivation reporter assay against reporter plasmids harboring HIV-1 or HTLV-1 viral promoter sequences cloned upstream of the luciferase reporter gene. In the controls Tat or Tax respectively activated HIV or HTLV LTR-directed gene expression. Co-transfection of interacting human ORFs identified 71 proteins (54% of the 131 human targets in our data set) that regulated HIV (26.7% of targets), HTLV (37.4% of targets) or both (9.9% of targets) LTR promoter activation by Tat or Tax (see Tables 7 and 8; Table 13 below containing quantitative data on the regulation of transactivation). Wherever not expressly specified, constructs used herein were generally made by sub-cloning entry clones from the ORFeome V3.1 into suitable destination vectors.

Molecule	HIV_LTR transactiv. [fold change]
MINA: human host interactor protein, Gene ID 84864, expressed from transfected ORF vector (protein) MPKKAKPTGSGKEEGPAPCKQMKLEAAGGPSALNFDSPSSLFESLISPIKTETFFKEFWEQKPLLIQRDDPALATYYGSLFKLTDLKSLCSRGMYYGRDVNVCRCVNGKKKVLNKDGKAHFLQLRKDFDQKRATIQFHQPQRFKDELWRIQEKLECYFGSLVGSNVYITPAGSQGLPPHYDDVEVFILQLEGEKHWRLYHPTVPLAREYSVEAEERIGRPVHEFMLKPGDLLYFPRGTIHQADTPAGLAHSTHVTISTYQNNSWGDFLLDTISGLVFDTAKEDVELRTGIPRQLLLQVESTTVATRRLSGFLRTLADRLEGTKELLSSDMKKDFIMHRLPPYSAGDGAELSTPGGKLPRLDSVVRLQFKDHIVLTVLPDQDQSDEAQEKMVYIYHSLKNSRETHMMGNEEETEFHGLRFPLSHLDALKQIWNSPAISVKDLKLTTDEEKESLVLSLWTECLIQVV	0.40
HOXD3: human host interactor protein, Gene ID 3232, expressed from transfected ORF vector (protein) MLFEQGQQALELPECTMQKAAYYENPGLFGGYGYSKTTDTYGYSTPHQPYPPPAAASSLDTDYPGSACSIQSSAPLRAPAHKGAELNGSCMRPGTGNSQGGGGGSQPPGLNSEQQPPQPPPPPPTLPPSSPTNPGGGVPAKKPKGGPNASSSSATISKQIFPWMKESRQNSKQKNSCATAGESCEDKSPPGPASKRVRTAYTSAQLVELEKEFHFNRYLCRPRRVEMANLLNLTERQIKIWFQNRRMKYKKDQKAKGILHSPASQSPERSPPLGGAAGHVAYSGQLPPVPGLAYDAPSPPAFAKSQPNMYGLAAYTAPLSSCLPQQKRYAAPEFEPHPMASNGGGFASANLQGSPVYVGGNFVESMAPASGPVFNLGHLSHPSSASVDYSCAAQIPGNHHHGPCDPHPTYTDLSAHHSSQGRLPEAPKLTHL	7.30
MIZF: human host interactor protein, Gene ID 25988, expressed from transfected ORF vector (protein) MPPPGKVPRKENLWLQCEWGSCSFVCSTMEKFFEHVTQHLQQHLHGSGEEEEEEEEDDPLEEEFSCLWQECGFCSLDSSADLIRHVYFHCYHTKLKQWGLQALQSQADLGPCILDFQSRNVIPDIPDHFLCLWEHCENSFDNPEWFYRHVEAHSLCCEYEAVGKDNPVVLCGWKGCTCTFKDRSKLREHLRSHTQEKVVACPTCGGMFANNTKFLDHIRRQTSLDQQHFQCSHCSKRFATERLLRDHMRNHVNHYKCPLCDMTCPLPSSLRNHMRFRHSEDRPFKCDCCDYSCKNLIDLQKHLDTHSEEPAYRCDFENCTFSARSLCSIKSHYRKVHEGDSEPRYKCHVCDKCFTRGNNLTVHLRKKHQFKWPSGHPRFRYKEHEDGYMRLQLVRYESVELTQQLLRQPQEGSGLGTSLNESSLQGIILETVPGEPGRKEEEEEGKGSEGTALSASQDNPSSVIHVVNQTNAQGQQEIVYYVLSEAPGEPPPAPEPPSGGIMEKLQGIAEEPEIQMV	2.50
MLLT11: human host interactor protein, Gene ID 10962, expressed from transfected ORF vector (protein) MRDPVSSQYSSFLFWRMPIPELDLSELEGLGLSDTATYKVKDSSVGKMIGQATAADQEKNPEGDGLLEYSTFNFWRAPIASIHSFELDLL	3.41
KRT15: human host interactor protein, Gene ID 3866, expressed from transfected ORF vector (protein) MTTTFLQTSSSTFGGGSTRGGSLLAGGGGFGGGSLSGGGGSRSISASSARFVSSGSGGGYGGGMRVCGFGGGAGSVFGGGFGGGVGGGFGGGFGGGDGGLLSGNEKITMQNLNDRLASYLDKVRALEEANADLEVKIHDWYQKQTPTSPECDYSQYFKTIEELRDKIMATTIDNSRVILEIDNARLAADDFRLKYENELALRQGVEADINGLRRVLDELTLARTDLEMQIEGLNEELAYLKKNHEEEMKEFSSQLAGQVNVEMDAAPGVDLTRVLAEMREQYEAMAEKNRRDVEAWFFSKTEELNKEVASNTEMIQTSKTEITDLRRTMQELEIELQSQLSMKAGLENSLAETECRYATQLQQIQGLIGGLEAQLSELRCEMEAQNQEYKMLLDIKTRLEQEIATYRSLLEGQDAKMAGIAIREASSGGGGSSSNFHINVEESVDGQVVSSHKREI	0.33
DLAT: human host interactor protein, Gene ID 1737, expressed from transfected ORF vector (protein) MWRVCARRAQNVAPWAGLEARWTALQEVPGTPRVTSRSGPAPARRNSVTTGYGGVRALCGWTPSSGATPRNRLLLQLLGSPGRRYYSLPPHQKVPLPSLSPTMQAGTIARWEKKEGDKINEGDLIAEVETDKATVGFESLEECYMAKILVAEGTRDVPIGAIICITVGKPEDIEAFKNYTLDSSAAPTPQAAPAPTPAATASPPTPSAQAPGSSYPPHMQVLLPALSPTMTMGTVQRWEKKVGEKLSEGDLLAEIETDKATIGFEVQEEGYLAKILVPEGTRDVPLGTPLCIIVEKEADISAFADYRPTEVTDLKPQVPPPTPPPVAAVPPTPQPLAPTPSAPCPATPAGPKGRVFVSPLAKKLAVEKGIDLTQVKGTGPDGRITKKDIDSFVPSKVAPAPAAVVPPTGPGMAPVPTGVFTDIPISNIRRVIAQRLMQSKQTIPHYYLSIDVNMGEVLLVRKELNKILEGRSKISVNDFIIKASALACLKVPEANSSWMDTVIRQNHVVDVSVAVSTPAGLITPIVFNAHIKGVETIANDVVSLATKAREGKLQPHEFQGGTFTISNLGMFGIKNFSAIINPPQACILAIGASEDKLVPADNEKGFDVASMMSVTLSCDHRVVDGAVGAQWLAEFRKYLEKPITMLL	6.90
LOC541468: human host interactor protein, Gene ID 541468, expressed from transfected ORF vector (protein) MEGTVESQTPDLRDVEGKVGRKTPEGLLRGLRGECELGTSGALLLPGASSTGHDLGDKIMALKMELAYLRAIDVKILQQLVTLNEGIEAVRWLLEERGTLTSHCSSLTSSQYSLTGGSPGRSRRGSWDSLPDTSTTDRLDSVSIGSFLDTVAPSELDEQGPPGAPRSEMDWAKVIAGGERARTEVDVAATRLGSLRAVWKPPGERLQGGPPESPEDESAKLGFEAHWFWEQCQDDVTFL	2.38

Tested on: HTLV-1 LTR promoter transactivation by HTLV-1 Tax
Test: Transactivation assay, HTLV-1 LTR luciferase reporter with HTLV-1 Tax
Assay type: cell-based
Details: HEK293 cells co-transfected with pHTLV1LTR-Luc, HTLV-1 Tax and the human ORF; relative luciferase activity 24 h post-transfection; positive if >=2 or <=0.5 and p<0.05
Excerpt: Twenty-four hours post-transfection, cells were washed three times with PBS, lysed and luciferase activities determined from two independent transfection experiments in triplicate. We computed a paired t-test to assess the difference of the means between samples with and without the human interactor. For a trial to be considered positive, the relative luciferase activities has to be >=2 or <=0.5, and the p-value of the t-test<0.05.
Expression vectors encoding human ORFs and HIV-1 Tat or HTLV-1 Tax proteins were tested in a transactivation reporter assay against reporter plasmids harboring HIV-1 or HTLV-1 viral promoter sequences cloned upstream of the luciferase reporter gene. […] Wherever not expressly specified, constructs used herein were generally made by sub-cloning entry clones from the ORFeome V3.1 into suitable destination vectors.

Molecule	HTLV_LTR transactiv. [fold change]
SPG21: human host interactor protein, Gene ID 51324, expressed from transfected ORF vector (protein) MGEIKVSPDYNWFRGTVPLKKIIVDDDDSKIWSLYDAGPRSIRCPLIFLPPVSGTADVFFRQILALTGWGYRVIALQYPVYWDHLEFCDGFRKLLDHLQLDKVHLFGASLGGFLAQKFAEYTHKSPRVHSLILCNSFSDTSIFNQTWTANSFWLMPAFMLKKIVLGNFSSGPVDPMMADAIDFMVDRLESLGQSELASRLTLNCQNSYVEPHKIRDIPVTIMDVFDQSALSTEAKEEMYKLYPNARRAHLKTGGNFPYLCRSAEVNLYVQIHLLQFHGTKYAAIDPSMVSAEELEVQKGSLGISQEEQ	0.21
TTC23: human host interactor protein, Gene ID 64927, expressed from transfected ORF vector (protein) MQESQETHISNHLDEVVAAVSITHRKKFQNKLLQTALFQPPREKLHLCEEKAKSYSNSHEYKQAVHELVRCVALTRICYGDSHWKLAEAHVNLAQGYLQLKGLSLQAKQHAEKARQILANSIVPPYSENTDVFKFSIELFHTMGRALLSLQKFKEAAENLTKAERLSKELLQCGRIIKEEWIEIEARIRLSFAQVYQGQKKSKEALSHYQAALEYVEISKGETSRECVPILRELAGVEQALGLHDVSINHFLQAHLIILSRSPSQVEAADSAHIVAHAAVASGRHEHHDVAEQYFQESMAHLKDSEGMGRTKFLSIQDEFCHFLQMTGQKERATSILRESLEAKVEAFGDFSPEVAETYRLLGGADLAQGNHSGARKKLKKCLQIQTLLYGPQDKRTLATQQAMGMLSTAPKVASKPRQASKAKVAFCTSIPQDTLLGKARPGTTAD	0.21

Source: US20120090043A1, “TARGETS FOR RETROVIRUS ASSOCIATED DISEASES” (priority 2009, published 2012)
